We go through one substance from US20210253724A1.

In experiment [1] the target is human 4-1BB (CD137) on Jurkat-hu4-1BB-NFκB-luc2 reporter cells (human) (UniProt Q07011). Nature of the experiment: cell-based or functional assay. Details: AUC of NFκB-luciferase activation curve, no FAP+ cells / AUC of NFκB-luciferase activation curve, with WM-266-4 cells: unit not given beside the values.
Experiment [2] has the same target. The experiment in a line: cell-based or functional assay. Details: AUC of NFκB-luciferase activation curve, no CEA+ cells / AUC of NFκB-luciferase activation curve, with CHO-k1-cynoCEACAM5 clone 8: unit not given beside the values.
Experiment [3] deals with human CEACAM5 (CEA) on cells (human) (UniProt P06731). Nature of the experiment: flow cytometry on MKN45 cells. Details: unit not given beside the values. For orientation: A flow cytometer gives signals particle by particle.
Experiment [4] addresses cynomolgus monkey CEACAM5 on CHO-k1-cynoCEACAM5 clone 8 cells (cynomolgus monkey). Nature of the experiment: flow cytometry on CHO-k1-cynoCEACAM5 clone 8. Details: unit not given beside the values.
The target of experiment [5] is human FAP on NIH/3T3-huFAP clone 19 cells (human) (UniProt Q12884). Nature of the experiment: flow cytometry on NIH/3T3-huFAP clone 19 cells.
For experiment [6], the target named is human CEACAM5 (CEA) on cells (human) (UniProt P06731). The experiment in a line: flow cytometry on CHO-k1-humanCEACAM5 clone 11.
The target is the same in experiment [7]. Nature of the experiment: flow cytometry on CHO-k1-humanCEACAM5 clone 12.
The target is the same in experiment [8]. Nature of the experiment: flow cytometry on CHO-k1-humanCEACAM5 clone 13.

human CEACAM5 (CEA) on cells (human), sequence (P06731 35-685 E398K limits assumed): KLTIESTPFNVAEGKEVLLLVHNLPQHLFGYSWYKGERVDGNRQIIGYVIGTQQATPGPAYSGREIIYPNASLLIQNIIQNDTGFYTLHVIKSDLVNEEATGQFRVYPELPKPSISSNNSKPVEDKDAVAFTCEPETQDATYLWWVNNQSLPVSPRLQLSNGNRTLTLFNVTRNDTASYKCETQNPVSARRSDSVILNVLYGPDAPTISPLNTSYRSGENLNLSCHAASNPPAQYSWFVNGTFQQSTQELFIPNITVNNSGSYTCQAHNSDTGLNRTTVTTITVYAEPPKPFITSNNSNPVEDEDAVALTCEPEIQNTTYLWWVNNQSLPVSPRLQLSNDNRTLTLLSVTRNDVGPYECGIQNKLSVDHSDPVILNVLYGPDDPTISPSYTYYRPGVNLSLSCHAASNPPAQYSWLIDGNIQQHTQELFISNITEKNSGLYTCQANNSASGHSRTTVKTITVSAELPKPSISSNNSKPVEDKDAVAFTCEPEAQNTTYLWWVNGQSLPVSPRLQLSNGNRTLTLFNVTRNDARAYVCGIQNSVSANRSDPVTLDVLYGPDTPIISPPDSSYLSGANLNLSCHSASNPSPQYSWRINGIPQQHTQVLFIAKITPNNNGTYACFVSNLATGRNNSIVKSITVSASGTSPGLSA

With “Untargeted (DP47) huIgG1 P329GLALA (antibody)”, in experiment [1], the AUC of NFκB-luciferase activation curve, no FAP+ cells turned out to be 286; the AUC of NFκB-luciferase activation curve, with NIH/3T3-huFAP clone 19 cells came out at 521; the AUC of NFκB-luciferase activation curve, with WM-266-4 cells was found to be 384. Besides, in experiment [2], the AUC of NFκB-luciferase activation curve, no CEA+ cells was 47; the AUC of NFκB-luciferase activation curve, with CHO-k1-cynoCEACAM5 clone 8 was 77; the AUC of NFκB-luciferase activation curve, with CHO-k1-humanCEACAM5 clone 11 came to 264; the AUC of NFκB-luciferase activation curve, with CHO-k1-humanCEACAM5 clone 12 was 313. In addition, the AUC in experiment [3] is 420. This substance yielded an AUC in experiment [4] of 219. Moreover, in experiment [5], the AUC came out at 362 and the EC50 – broadly, the concentration at which the effect is half-maximal – amounted to 2.29 nM. In addition, the AUC in experiment [6] was determined as 746. The substance also came in with an AUC in experiment [7] of 1190. Also, the AUC in experiment [8] is 1870.
